Measured values reported in patent US20190350938A1 (BROAD INSTITUTE, published 2019).

T1: P2D SLC16A11^REF-V5 (human, UniProt Q8NCK7 1-447)
T1 construct: bait of the proteomics study; also called P2D WT SLC16A11; WT SLC16A11
T1 sequence: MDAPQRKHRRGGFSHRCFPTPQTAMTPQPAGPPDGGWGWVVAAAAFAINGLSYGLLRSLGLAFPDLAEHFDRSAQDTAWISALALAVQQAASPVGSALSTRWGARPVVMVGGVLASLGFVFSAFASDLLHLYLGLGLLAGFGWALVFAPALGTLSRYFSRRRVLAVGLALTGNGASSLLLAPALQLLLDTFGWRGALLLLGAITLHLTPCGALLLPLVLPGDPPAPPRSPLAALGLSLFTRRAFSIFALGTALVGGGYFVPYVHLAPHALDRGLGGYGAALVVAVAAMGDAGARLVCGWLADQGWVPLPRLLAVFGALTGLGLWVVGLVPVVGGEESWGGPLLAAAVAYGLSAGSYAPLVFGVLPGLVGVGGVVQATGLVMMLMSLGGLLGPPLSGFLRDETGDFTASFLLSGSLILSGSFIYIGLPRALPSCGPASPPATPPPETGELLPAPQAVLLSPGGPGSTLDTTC

B1: Basigin (other, human, UniProt P35613-2 22-269, looked up)
chain: AAGTVFTTVEDLGSKILLTCSLNDSATEVTGHRWLKGGVVLKEDALPGQKTEFKVDSDDQWGEYSCVFLPEPMGTANIQLHGPPRVKAVKSSEHINEGETAMLVCKSESVPPVTDWAWYKITDSEDKALMNGSESRFFVSSSQGRSELHIENLNMEADPGQYRCNGTSSKGSDQAIITLRVRSHLAALWPFLGIVAEVLVLVTIIFIYEKRRKPEDVLDDDDAGSAPLKSSGQHQNDKGKNVRQRNSS
modifications: glycosylated (runs as multiple bands)
notes: Endogenous protein co-precipitated from HEK293T lysate; also called BSG; endogenous BSG

target: B1; assay: cell-based or functional assay

| pyruvate influx and efflux rates (pyronic FRET assay, 293T cells) | Molecule |
| --- | --- |
| ~0.5 fold of WT SLC16A11 | SLC16A11^T2D-V5 (other, not shown: small tags and cut ends) MPAPQRKHRRGGFSHRCFPTPQTAMTPQPAGPPDGGWGWVVAAAAFAINGLSYGLLRSLGLAFPDLAEHFDRSAQDTAWISALALAVQQAASPVGSALSTRWGARPVVMVGGILASLGFVFSAFASGLLHLYLGLGLLAGFGWALVFAPALGTLSRYFSRRRVLAVGLALTGNGASSLLLAPALQLLLDTFGWRGALLLLGAITLHLTPCGALLLPLVLPGDPPAPPRSPLAALGLSLFTRRAFSIFALGTALVGGGYFVPYVHLAPHALDRGLGGYGAALVVAVAAMGDAGARLVCGWLADQGWVPLPRLLAVFGALTGLGLWVVGLVPVVGGEESWGSPLLAAAVAYGLSAGSYAPLVFGVLPGLVGVGGVVQATGLVMMLMSLGGLLGPPLSGFLRDETGDFTASFLLSGSLILSGSFIYIGLPRALPSCGPASPPATPTPETGELLPAPQAVLLSPGGPGSTLDTTCLPTFLYKVVGKPIPNPLLGLDST |

target: T1, P2D SLC16A11^REF-V5; assay: anti-V5 IP of P2D SLC16A11REF-V5 from HEK293T lysate, iTRAQ quantitative MS; enrichment vs empty vector control IP

| B.A. logFC | BA log fold change (log fold change) | BA log fold change | Molecule |
| --- | --- | --- | --- |
| 1.65 logFC | 1.65 | – | SLC25A3 (from UniProt Q00325 50-361) |
| – | 1.18 | – | PSMD12 (from UniProt O00232 2-456) |
| – | 1.16 | – | PSMC3 (from UniProt P17980 1-439) |
| 1.2 logFC | 1.2 | – | Proteasome subunit alpha type-1 (from UniProt P25786 1-269) |
| – | 1.18 | – | PPP6R3 (from UniProt Q5H9R7 1-879) |
| 1.26 logFC | 1.26 | – | BAG2 (from UniProt O95816 2-211) |
| – | 1.05 | – | TUBA1B (from UniProt P68363 1-451) |
| – | 1.1 | – | AUP1 (from UniProt Q9Y679 1-410) |
| – | 1.22 | – | DNAJC3 (from UniProt Q13217 32-504) |
| – | 1.04 | – | BRAT1 (from UniProt Q6PJG6 1-821) |
| 1.84 logFC | 1.84 | – | SEC61A1 (from UniProt B4DR61 1-482) |
| – | 1.09 | – | MAGED1 (from UniProt Q9Y5V3 1-834) |
| 1.42 logFC | 1.42 | – | E3 ubiquitin-protein ligase RNF5 (from UniProt Q99942 2-180) (enzyme) |
| – | 1.03 | – | HEATR2 (from UniProt Q86Y56 2-855) |
| – | 1.09 | – | PSMA3 (from UniProt P25788 2-255) |
| – | 1.14 | – | XPO5 (from UniProt Q9HAV4 2-1204) |
| – | 1.02 | – | TUBA4A (from UniProt P68366 1-448) |
| 1.69 logFC | 1.69 | – | 7-dehydrocholesterol reductase (from UniProt Q9UBM7 1-475) (enzyme) |
| – | 1.14 | – | VDAC2 (from UniProt P45880 1-309) |
| – | 1.08 | – | BAG6 (from UniProt P46379 1-1162) |
| – | 1.1 | – | TECR (from UniProt Q9NZ01 1-308) (enzyme) |
| – | 1.02 | – | PSMD11 (from UniProt O00231 1-423) |
| 1.38 logFC | 1.38 | – | CANX (from UniProt P27824 56-627) |
| 1.25 logFC | 1.25 | – | Transmembrane protein 33 (from UniProt P57088 2-247) |
| – | 1.08 | – | DNAJB4 (from UniProt Q9UDY4 2-337) |
| 1.65 logFC | 1.65 | – | EMC3 (from UniProt Q9P0I2 2-261) |

| B.A. logFC | BA log fold change (log fold change) | BA log fold change | Molecule |
| --- | --- | --- | --- |
| 1.59 logFC | 1.59 | – | SEC61A2 (from UniProt Q9H9S3 1-476) |
| – | 1.08 | – | SCFD1 (from UniProt Q8WVM8 2-642) |
| – | 1.16 | – | LPCAT1 (from UniProt Q8NF37 1-534) (enzyme) |
| 1.21 logFC | 1.21 | – | UBAC2 (from UniProt Q8NBM4 36-344) |
| – | 1.11 | – | PHGDH (from UniProt O43175 2-533) (enzyme) |
| – | 1.11 | – | ADCK4 (from UniProt Q96D53 1-544) |
| 1.26 logFC | 1.26 | – | SACM1L (from UniProt Q9NTJ5 1-587) (enzyme) |
| – | 1.16 | – | AGPAT6 (from UniProt Q86UL3 38-456) (enzyme) |
| 1.33 logFC | 1.33 | – | SURF4 (from UniProt O15260 2-269) |
| 1.26 logFC | 1.26 | – | HSD17B12 (from UniProt Q53GQ0 1-312) (enzyme) |
| 1.31 logFC | 1.31 | – | PSMD14 (from UniProt O00487 1-310) |
| – | 1.05 | – | DNAJC7 (from UniProt Q99615 2-494) |
| – | 1.16 | – | KIAA0368 (from UniProt J3KN16 1-2017) |
| – | 1.08 | – | QIL1 (from UniProt Q5XKP0 1-118) |
| – | 1.18 | – | ATP1B3 (from UniProt P54709 1-279) |
| – | 1.2 | – | SLC25A22 (from UniProt Q9H936 1-323) |
| 1.23 logFC | 1.23 | – | FAS-associated factor 2 (from UniProt Q96CS3 2-445) |
| 1.22 logFC | 1.22 | – | TIMM23B (from UniProt Q5SRD1 1-188) |
| – | 1.04 | – | TUBA1C (from UniProt F5H5D3 1-519) |
| – | 0.98 | – | PSMD2 (from UniProt Q13200 1-908) |
| – | 1.27 | – | STT3A (from UniProt P46977 1-705) (enzyme) |
| – | 1.01 | – | GCN1L1 (from UniProt Q92616 2-2671) |
| 1.65 logFC | 1.65 | – | DDOST (from UniProt P39656 43-456) |
| 1.55 logFC | 1.55 | – | Embigin (protein, human, UniProt Q6PCB8 33-327, looked up) DGSAPDSPFTSPPLREEIMANNFSLESHNISLTEHSSMPVEKNITLERPSNVNLTCQFTTSGDLNAVNVTWKKDGEQLENNYLVSATGSTLYTQYRFTIINSKQMGSYSCFFREEKEQRGTFNFKVPELHGKNKPLISYVGDSTVLTCKCQNCFPLNWTWYSSNGSVKVPVGVQMNKYVINGTYANETKLKITQLLEEDGESYWCRALFQLGESEEHIELVVLSYLVPLKPFLVIVAEVILLVATILLCEKYTQKKKKHSDEGKEFEQIEQLKSDDSNGIENNVPRHRKNESLGQ |
| – | – | 1.43 log fold change | B1 |
